*1 amine or outer side, *2 acyl side, *3 side chain or, on linkers, in order; H or OH if unused. Bridges are numbered along the chain shown (N, C = ends). Where no end group is shown, it is not given here. Side-chain parts run from the residue outwards. [ ]: non-standard residue; d: D form. The star is where a group is joined. C20 diacid = O=C(O)CCCCCCCCCCCCCCCCCCC(=O)*; γGlu = O=C(O)[C@H](CCC(=O)[*:2])N[*:1]; AEEA = NCCOCCOCC(=O)O; Aib = CC(C)(N)C(=O)O

T1: human GIP receptor (human, UniProt P48546 22-466)
T1 sequence (looked up): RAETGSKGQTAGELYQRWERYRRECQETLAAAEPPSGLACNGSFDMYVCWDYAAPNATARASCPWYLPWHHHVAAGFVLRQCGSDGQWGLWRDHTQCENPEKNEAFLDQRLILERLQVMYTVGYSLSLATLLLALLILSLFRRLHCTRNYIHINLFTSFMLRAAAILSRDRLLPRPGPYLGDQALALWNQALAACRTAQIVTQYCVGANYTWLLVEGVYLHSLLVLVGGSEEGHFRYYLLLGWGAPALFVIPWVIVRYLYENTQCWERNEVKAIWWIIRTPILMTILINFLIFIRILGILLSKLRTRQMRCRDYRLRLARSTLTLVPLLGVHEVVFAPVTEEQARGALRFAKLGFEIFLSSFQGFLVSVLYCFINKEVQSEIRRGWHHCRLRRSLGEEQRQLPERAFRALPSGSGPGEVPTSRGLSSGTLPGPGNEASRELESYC

B1: triple agonist of SEQ ID NO: 5 (peptide)
peptide: Y[Aib]QGTFTSDYSK([AEEA-AEEA-γGlu-C20 diacid])ALDEKRAKEFVQWLLDQHPSSGQPPPS-NH2
modifications: lactam 16-20; N-terminus assumed
SMILES: CC(C)C[C@H](NC(=O)[C@H](C)NC(=O)[C@H](CCCCNC(=O)COCCOCCNC(=O)COCCOCCNC(=O)CC[C@H](NC(=O)CCCCCCCCCCCCCCCCCCC(=O)O)C(=O)O)NC(=O)[C@H](CO)NC(=O)[C@H](Cc1ccc(O)cc1)NC(=O)[C@H](CC(=O)O)NC(=O)[C@H](CO)NC(=O)[C@@H](NC(=O)[C@H](Cc1ccccc1)NC(=O)[C@@H](NC(=O)CNC(=O)[C@H](CCC(N)=O)NC(=O)C(C)(C)NC(=O)[C@@H](N)Cc1ccc(O)cc1)[C@@H](C)O)[C@@H](C)O)C(=O)N[C@@H](CC(=O)O)C(=O)N[C@H]1CCC(=O)NCCCC[C@@H](C(=O)N[C@@H](CCC(=O)O)C(=O)N[C@@H](Cc2ccccc2)C(=O)N[C@H](C(=O)N[C@@H](CCC(N)=O)C(=O)N[C@@H](Cc2c[nH]c3ccccc23)C(=O)N[C@@H](CC(C)C)C(=O)N[C@@H](CC(C)C)C(=O)N[C@@H](CC(=O)O)C(=O)N[C@@H](CCC(N)=O)C(=O)N[C@@H](Cc2c[nH]cn2)C(=O)N2CCC[C@H]2C(=O)N[C@@H](CO)C(=O)N[C@@H](CO)C(=O)NCC(=O)N[C@@H](CCC(N)=O)C(=O)N2CCC[C@H]2C(=O)N2CCC[C@H]2C(=O)N2CCC[C@H]2C(=O)N[C@@H](CO)C(N)=O)C(C)C)NC(=O)[C@H](C)NC(=O)[C@H](CCCNC(=N)N)NC(=O)[C@H](CCCCN)NC1=O
B2: triple agonist of SEQ ID NO: 1 (peptide)
peptide: Y[Aib]QGTFTSDYSK([AEEA-AEEA-γGlu-C20 diacid])YLDEKAAKEFVQWLLDHHPSSGQPPPS-NH2
modifications: lactam 16-20; N-terminus assumed
SMILES: CC(C)C[C@H](NC(=O)[C@H](Cc1ccc(O)cc1)NC(=O)[C@H](CCCCNC(=O)COCCOCCNC(=O)COCCOCCNC(=O)CC[C@H](NC(=O)CCCCCCCCCCCCCCCCCCC(=O)O)C(=O)O)NC(=O)[C@H](CO)NC(=O)[C@H](Cc1ccc(O)cc1)NC(=O)[C@H](CC(=O)O)NC(=O)[C@H](CO)NC(=O)[C@@H](NC(=O)[C@H](Cc1ccccc1)NC(=O)[C@@H](NC(=O)CNC(=O)[C@H](CCC(N)=O)NC(=O)C(C)(C)NC(=O)[C@@H](N)Cc1ccc(O)cc1)[C@@H](C)O)[C@@H](C)O)C(=O)N[C@@H](CC(=O)O)C(=O)N[C@H]1CCC(=O)NCCCC[C@@H](C(=O)N[C@@H](CCC(=O)O)C(=O)N[C@@H](Cc2ccccc2)C(=O)N[C@H](C(=O)N[C@@H](CCC(N)=O)C(=O)N[C@@H](Cc2c[nH]c3ccccc23)C(=O)N[C@@H](CC(C)C)C(=O)N[C@@H](CC(C)C)C(=O)N[C@@H](CC(=O)O)C(=O)N[C@@H](Cc2c[nH]cn2)C(=O)N[C@@H](Cc2c[nH]cn2)C(=O)N2CCC[C@H]2C(=O)N[C@@H](CO)C(=O)N[C@@H](CO)C(=O)NCC(=O)N[C@@H](CCC(N)=O)C(=O)N2CCC[C@H]2C(=O)N2CCC[C@H]2C(=O)N2CCC[C@H]2C(=O)N[C@@H](CO)C(N)=O)C(C)C)NC(=O)[C@H](C)NC(=O)[C@H](C)NC(=O)[C@H](CCCCN)NC1=O
B3: triple agonist of SEQ ID NO: 6 (peptide)
peptide: H[Aib]HGTFTSDYSK([AEEA-AEEA-γGlu-C20 diacid])YLDEKAAKDFVQWLLDQHPSSGQPPPS-NH2
modifications: lactam 16-20; N-terminus assumed
SMILES: CC(C)C[C@H](NC(=O)[C@H](Cc1ccc(O)cc1)NC(=O)[C@H](CCCCNC(=O)COCCOCCNC(=O)COCCOCCNC(=O)CC[C@H](NC(=O)CCCCCCCCCCCCCCCCCCC(=O)O)C(=O)O)NC(=O)[C@H](CO)NC(=O)[C@H](Cc1ccc(O)cc1)NC(=O)[C@H](CC(=O)O)NC(=O)[C@H](CO)NC(=O)[C@@H](NC(=O)[C@H](Cc1ccccc1)NC(=O)[C@@H](NC(=O)CNC(=O)[C@H](Cc1c[nH]cn1)NC(=O)C(C)(C)NC(=O)[C@@H](N)Cc1c[nH]cn1)[C@@H](C)O)[C@@H](C)O)C(=O)N[C@@H](CC(=O)O)C(=O)N[C@H]1CCC(=O)NCCCC[C@@H](C(=O)N[C@@H](CC(=O)O)C(=O)N[C@@H](Cc2ccccc2)C(=O)N[C@H](C(=O)N[C@@H](CCC(N)=O)C(=O)N[C@@H](Cc2c[nH]c3ccccc23)C(=O)N[C@@H](CC(C)C)C(=O)N[C@@H](CC(C)C)C(=O)N[C@@H](CC(=O)O)C(=O)N[C@@H](CCC(N)=O)C(=O)N[C@@H](Cc2c[nH]cn2)C(=O)N2CCC[C@H]2C(=O)N[C@@H](CO)C(=O)N[C@@H](CO)C(=O)NCC(=O)N[C@@H](CCC(N)=O)C(=O)N2CCC[C@H]2C(=O)N2CCC[C@H]2C(=O)N2CCC[C@H]2C(=O)N[C@@H](CO)C(N)=O)C(C)C)NC(=O)[C@H](C)NC(=O)[C@H](C)NC(=O)[C@H](CCCCN)NC1=O
B4: triple agonist of SEQ ID NO: 7 (peptide)
peptide: Y[Aib]QGTFTSDYSK([AEEA-AEEA-γGlu-C20 diacid])YLDEKRAKDFVQWLLDQHPSSGQPPPS-NH2
modifications: lactam 16-20; N-terminus assumed
SMILES: CC(C)C[C@H](NC(=O)[C@H](Cc1ccc(O)cc1)NC(=O)[C@H](CCCCNC(=O)COCCOCCNC(=O)COCCOCCNC(=O)CC[C@H](NC(=O)CCCCCCCCCCCCCCCCCCC(=O)O)C(=O)O)NC(=O)[C@H](CO)NC(=O)[C@H](Cc1ccc(O)cc1)NC(=O)[C@H](CC(=O)O)NC(=O)[C@H](CO)NC(=O)[C@@H](NC(=O)[C@H](Cc1ccccc1)NC(=O)[C@@H](NC(=O)CNC(=O)[C@H](CCC(N)=O)NC(=O)C(C)(C)NC(=O)[C@@H](N)Cc1ccc(O)cc1)[C@@H](C)O)[C@@H](C)O)C(=O)N[C@@H](CC(=O)O)C(=O)N[C@H]1CCC(=O)NCCCC[C@@H](C(=O)N[C@@H](CC(=O)O)C(=O)N[C@@H](Cc2ccccc2)C(=O)N[C@H](C(=O)N[C@@H](CCC(N)=O)C(=O)N[C@@H](Cc2c[nH]c3ccccc23)C(=O)N[C@@H](CC(C)C)C(=O)N[C@@H](CC(C)C)C(=O)N[C@@H](CC(=O)O)C(=O)N[C@@H](CCC(N)=O)C(=O)N[C@@H](Cc2c[nH]cn2)C(=O)N2CCC[C@H]2C(=O)N[C@@H](CO)C(=O)N[C@@H](CO)C(=O)NCC(=O)N[C@@H](CCC(N)=O)C(=O)N2CCC[C@H]2C(=O)N2CCC[C@H]2C(=O)N2CCC[C@H]2C(=O)N[C@@H](CO)C(N)=O)C(C)C)NC(=O)[C@H](C)NC(=O)[C@H](CCCNC(=N)N)NC(=O)[C@H](CCCCN)NC1=O
B5: triple agonist of SEQ ID NO: 4 (peptide)
peptide: Y[Aib]QGTFTSDYSK([AEEA-AEEA-γGlu-C20 diacid])YLDEKRAKDFVQWLLDHHPSSGQPPPS-NH2
modifications: lactam 16-20; N-terminus assumed
SMILES: CC(C)C[C@H](NC(=O)[C@H](Cc1ccc(O)cc1)NC(=O)[C@H](CCCCNC(=O)COCCOCCNC(=O)COCCOCCNC(=O)CC[C@H](NC(=O)CCCCCCCCCCCCCCCCCCC(=O)O)C(=O)O)NC(=O)[C@H](CO)NC(=O)[C@H](Cc1ccc(O)cc1)NC(=O)[C@H](CC(=O)O)NC(=O)[C@H](CO)NC(=O)[C@@H](NC(=O)[C@H](Cc1ccccc1)NC(=O)[C@@H](NC(=O)CNC(=O)[C@H](CCC(N)=O)NC(=O)C(C)(C)NC(=O)[C@@H](N)Cc1ccc(O)cc1)[C@@H](C)O)[C@@H](C)O)C(=O)N[C@@H](CC(=O)O)C(=O)N[C@H]1CCC(=O)NCCCC[C@@H](C(=O)N[C@@H](CC(=O)O)C(=O)N[C@@H](Cc2ccccc2)C(=O)N[C@H](C(=O)N[C@@H](CCC(N)=O)C(=O)N[C@@H](Cc2c[nH]c3ccccc23)C(=O)N[C@@H](CC(C)C)C(=O)N[C@@H](CC(C)C)C(=O)N[C@@H](CC(=O)O)C(=O)N[C@@H](Cc2c[nH]cn2)C(=O)N[C@@H](Cc2c[nH]cn2)C(=O)N2CCC[C@H]2C(=O)N[C@@H](CO)C(=O)N[C@@H](CO)C(=O)NCC(=O)N[C@@H](CCC(N)=O)C(=O)N2CCC[C@H]2C(=O)N2CCC[C@H]2C(=O)N2CCC[C@H]2C(=O)N[C@@H](CO)C(N)=O)C(C)C)NC(=O)[C@H](C)NC(=O)[C@H](CCCNC(=N)N)NC(=O)[C@H](CCCCN)NC1=O

One assay concerns the target T1, human GIP receptor. The assay is described as follows: cell-based or functional assay.
Regarding B1, the “In vitro Activity Compared to Native Peptide (%) vs. GIP (relative titer from cAMP EC50)” value is 5.29 % of human GIP.
Still for that read-out and setting: to B2 belongs 5.18 % of human GIP.
In the case of B3, the “In vitro Activity Compared to Native Peptide (%) vs. GIP (relative titer from cAMP EC50)” value was 6.11 % of human GIP.
B4: the “In vitro Activity Compared to Native Peptide (%) vs. GIP (relative titer from cAMP EC50)” value is 5.26 % of human GIP.
As to B5, the “In vitro Activity Compared to Native Peptide (%) vs. GIP (relative titer from cAMP EC50)” value was 3.81 % of human GIP.

In a further assay the target is human GLP-1 receptor (human, UniProt P43220 24-463). The experiment in a line: cell-based or functional assay.
Turning to B1, the “In vitro Activity Compared to Native Peptide (%) vs. GLP-1 (relative titer from cAMP EC50)” value is 2.36 % of human GLP-1.
Same read-out and setting: the same measure for B2: 5.88 % of human GLP-1.
The same measure, in the same setting: to B3 belongs 7.94 % of human GLP-1; to B4, 4.21 % of human GLP-1; to B5, 3.71 % of human GLP-1.

In another assay the target is human GCG receptor (human, UniProt P47871 26-477). The assay is described as follows: cell-based or functional assay.
Sequence of human GCG receptor (P47871 26-477): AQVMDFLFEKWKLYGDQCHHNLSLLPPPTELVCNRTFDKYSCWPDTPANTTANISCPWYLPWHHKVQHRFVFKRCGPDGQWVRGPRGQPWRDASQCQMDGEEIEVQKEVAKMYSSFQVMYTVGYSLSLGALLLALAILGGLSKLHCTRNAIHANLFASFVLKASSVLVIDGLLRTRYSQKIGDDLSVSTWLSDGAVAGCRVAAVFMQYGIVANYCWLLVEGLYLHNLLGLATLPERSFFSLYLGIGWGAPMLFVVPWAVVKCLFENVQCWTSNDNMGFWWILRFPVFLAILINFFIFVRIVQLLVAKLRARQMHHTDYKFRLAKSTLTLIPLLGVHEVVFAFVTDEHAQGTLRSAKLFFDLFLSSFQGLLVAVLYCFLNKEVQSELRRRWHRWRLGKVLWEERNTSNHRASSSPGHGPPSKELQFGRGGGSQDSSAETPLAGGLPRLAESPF
Turning to B1, the “In vitro Activity Compared to Native Peptide (%) vs. Glucagon (relative titer from cAMP EC50)” value was 1.51 % of human GCG.
Same read-out and setting: to B2 belongs 0.33 % of human GCG; to B3, 1.36 % of human GCG; to B4, 3.32 % of human GCG.
The same measure, in the same setting: to B5 belongs 2.36 % of human GCG.

For the origin of these results see patent publication US20260116944A1, “NOVEL TRIPLE GLP-1/GIP/GLUCAGON RECEPTOR AGONIST AND A PHARMACEUTICAL COMPOSITION FOR PREVENTING OR TREATING OBESITY COMPRISING THE SAME” (HANMI PHARM. CO., LTD., priority 2022, published 2026).
